Laboratory results as given in patent publication US9499823B2, “Constructs expressing chimeric receptors and use thereof for the controlled activation of defence response to pathogens in plants” (priority 2009, dated 2016).
“Also recorded” adds a separate entry of the source.

Tests used:
[1] = tested on: At3g22270 and At4g37640 transcripts; assay: Elicitor-induced At3g22270 and At4g37640 expression, semi-quantitative PCR, Arabidopsis Col-0 / Col-0 efr; format: cell-based, Arabidopsis thaliana; conditions: transgenic Col-0 efr plants
Protocol: (A) Induction of ethylene biosynthesis in agroinfiltrated tobacco explants expressing EFR, WAK1, WEG and EWAK. […] Agroinfiltrated leaf tissues expressing EFR or WEG and elicited with OGs or elfl8 respectively, represented our negative control. Values are means±s.e.m. (N=3). (B) Elicitor-induced gene expression in untransformed Col-0 and Col-0 efr plants, and in transgenic Arabidopsis Col-0 efr plants stably expressing WEG. Accumulation of At3g22270 and At4g37640 transcripts was analysed by semi-quantitative PCR, using the UBQ5 gene for normalization. Adult leaves were syringe-infiltrated with water, OGs (25 μg/ml) or elfl8 (10 μM) for 3 h. The experiment was repeated three times with similar results. The same experiment was performed in a second independent transgenic line expressing WEG with similar results.
The ability of WEG to activate downstream responses upon stimulation with OGs was analysed in agroinfiltrated tobacco.

B. cinerea = assay: Lesion development in Arabidopsis plants inoculated with B. cinerea; format: in vivo; conditions: transgenic Arabidopsis vs Col-0 or Col-0 efr, 48 h post-inoculation
Protocol: (A) Growth of A. tumefaciens in N. tabacum tissues transiently expressing receptor proteins. Tobacco leaves were infiltrated with Agrobacterium carrying the indicated receptor constructs and the number of Agrobacterium colony-forming units (c.f.u.) in the tissues was analyzed immediately after infiltration (white bars) and after 24 h (gray bars). EFR and eJMC were used as positive and negative controls, respectively. For each receptor, three samples were analyzed in five independent experiments. Asterisks indicate statistically significant differences against control (Col-0 for WAK1 plants and Col-0 efr for WEG and EWAK plants). (B) Lesion development in Arabidopsis wild type (Col-0) and mutant Col-0 efr plants and in transgenic plants expressing WAK1, WEG and EWAK plants inoculated with B. cinerea at 48 h post-inoculation. Values are means±s.e.m. of at least 16 lesions. The same experiment was performed in a second independent transgenic line expressing WAK1 with similar results. Asterisks indicate statistically significant differences against control (Col-0 for WAK1 plants and Col-0 efr for WEG and EWAK plants).

[2] = tested on: transgenic Arabidopsis leaves; assay: Constitutive activation of defense responses (H2O2, callose) in transgenic plants; format: cell-based, Arabidopsis thaliana; conditions: no elicitor
Protocol: Leaves were stained with 3,3′-diaminobenzidine (DAB) for H2O2 visualization (upper panel) and with aniline blue for callose visualization (lower panel).
3,3′-diaminobenzidine (DAB) staining, callose deposition and gene resistance analysis were assayed as described (Galletti et al., 2008). For measuring active oxygen species released by tobacco agroinfiltrated plants after elicitor treatment, the authors used a modified luminol-dependent assay (Gomez et al., 1999). Slices, corresponding to approximately 30 mg fresh weight, were transferred to assay tubes containing 1 μM flg22 or 10 μM elfl8 in aqueous solution supplied with 40 μM luminol (SIGMA). Chemo-luminescence was measured in a liquid scintillation counter (LS-6500, Beckman) after 5 and 15 min upon addition of elicitors.

B1: WEG: chimeric receptor: WAK1 ectodomain fused to the TM-iJM-kinase portion of EFR, GFP-fused (protein)
chain: QHQPGENCQNKCGNITIEYPFGISSGCYYPGNESFSITCKEDRPHVLSDIEVANFNHSGQLQVLLNRSSTCYDEQGKKTEEDSSFTLENLSLSANNKLTAVGCNALSLLDTFGMQNYSTACLSLCDSPPEADGECNGRGCCRVDVSAPLDSYTFETTSGRIKHMTSFHDFSPCTYAFLVEDDKFNFSSTEDLLNLRNVMRFPVLLDWSVGNQTCEQVGSTSICGGNSTCLDSTPRNGYICRCNEGFDGNPYLSAGCQDVNECTTSSTIHRHNCSDPKTCRNKVGGFYCKCQSGYRLDTTTMSCKRKEVVSGICIGIASLLLIIIVASLCWFMKRKKKNNASDGNPSDSTTLGMFHEKVSYEELHSATSRFSSTNLIGSGNFGNVFKGLLGPENKLVAVKVLNLLKHGATKSFMAECETFKGIRHRNLVKLITVCSSLDSEGNDFRALVYEFMPKGSLDMWLQLEDLERVNDHSRSLTPAEKLNIAIDVASALEYLHVHCHDPVAHCDIKPSNILLDDDLTAHVSDFGLAQLLYKYDRESFLNQFSSAGVRGTIGYAAPEYGMGGQPSIQGDVYSFGILLLEMFSGKKPTDESFAGDYNLHSYTKSILSGCTSSGGSNAIDEGLRLVLQVGIKCSEEYPRDRMRTDEAVRELISIRSKFFSSKTTITESPRDAPQSSPQEWMLNTDMHTM
modifications: left off: large carriers
- induction of At3g22270 and At4g37640 by other elicitors ([1]; 3 h): not by other elicitors
- induction of At3g22270 and At4g37640 by OGs ([1]; OGs 25 μg/ml, 3 h): induced by OGs
- constitutive activation of At3g22270 and At4g37640 expression ([1]; water controls): No constitutive activation
- resistance to B. cinerea infection (B. cinerea): increased resistance; also recorded: confers resistance
- constitutive activation of defense responses (H2O2 levels, callose deposits) [2]: do not show constitutive activation of defense responses
